Laboratory results published in US20200331965A1 (EMORY UNIVERSITY, published 2020).

B1: native claudin-5 (rat alveolar epithelial cells) (other, UniProt Q9JKD6 1-218, looked up)
chain: MGSAALEILGLVLCLVGWVGLILACGLPMWQVTAFLDHNIVTAQTTWKGLWMSCVVQSTGHMQCKVYESVLALSAEVQAARALTVGAVLLALVALFVTLTGAQCTTCVAPGPVKARVALTGGALYALCGLLALVPLCWFANIVVREFYDPTVPVSQKYELGAALYIGWAASALLMCGGGLVCCGAWVCTGRPEFSFPVKYSAPRRTTANGDYDKKNYV
notes: whole, on cells; Endogenous protein in primary rat AECs from control-fed or alcohol-fed rats; detected with antibodies (co-immunopurification, STORM, PLA); also called Cldn-5

Experiments:
[1] = target: zonula occludens 1 (rat alveolar epithelial cells) (rat); test: STORM co-localization, rat AECs transduced with YFP-claudin-5
Chain of zonula occludens 1 (rat alveolar epithelial cells) (rat) (A0A0G2 entry or part of it limits assumed): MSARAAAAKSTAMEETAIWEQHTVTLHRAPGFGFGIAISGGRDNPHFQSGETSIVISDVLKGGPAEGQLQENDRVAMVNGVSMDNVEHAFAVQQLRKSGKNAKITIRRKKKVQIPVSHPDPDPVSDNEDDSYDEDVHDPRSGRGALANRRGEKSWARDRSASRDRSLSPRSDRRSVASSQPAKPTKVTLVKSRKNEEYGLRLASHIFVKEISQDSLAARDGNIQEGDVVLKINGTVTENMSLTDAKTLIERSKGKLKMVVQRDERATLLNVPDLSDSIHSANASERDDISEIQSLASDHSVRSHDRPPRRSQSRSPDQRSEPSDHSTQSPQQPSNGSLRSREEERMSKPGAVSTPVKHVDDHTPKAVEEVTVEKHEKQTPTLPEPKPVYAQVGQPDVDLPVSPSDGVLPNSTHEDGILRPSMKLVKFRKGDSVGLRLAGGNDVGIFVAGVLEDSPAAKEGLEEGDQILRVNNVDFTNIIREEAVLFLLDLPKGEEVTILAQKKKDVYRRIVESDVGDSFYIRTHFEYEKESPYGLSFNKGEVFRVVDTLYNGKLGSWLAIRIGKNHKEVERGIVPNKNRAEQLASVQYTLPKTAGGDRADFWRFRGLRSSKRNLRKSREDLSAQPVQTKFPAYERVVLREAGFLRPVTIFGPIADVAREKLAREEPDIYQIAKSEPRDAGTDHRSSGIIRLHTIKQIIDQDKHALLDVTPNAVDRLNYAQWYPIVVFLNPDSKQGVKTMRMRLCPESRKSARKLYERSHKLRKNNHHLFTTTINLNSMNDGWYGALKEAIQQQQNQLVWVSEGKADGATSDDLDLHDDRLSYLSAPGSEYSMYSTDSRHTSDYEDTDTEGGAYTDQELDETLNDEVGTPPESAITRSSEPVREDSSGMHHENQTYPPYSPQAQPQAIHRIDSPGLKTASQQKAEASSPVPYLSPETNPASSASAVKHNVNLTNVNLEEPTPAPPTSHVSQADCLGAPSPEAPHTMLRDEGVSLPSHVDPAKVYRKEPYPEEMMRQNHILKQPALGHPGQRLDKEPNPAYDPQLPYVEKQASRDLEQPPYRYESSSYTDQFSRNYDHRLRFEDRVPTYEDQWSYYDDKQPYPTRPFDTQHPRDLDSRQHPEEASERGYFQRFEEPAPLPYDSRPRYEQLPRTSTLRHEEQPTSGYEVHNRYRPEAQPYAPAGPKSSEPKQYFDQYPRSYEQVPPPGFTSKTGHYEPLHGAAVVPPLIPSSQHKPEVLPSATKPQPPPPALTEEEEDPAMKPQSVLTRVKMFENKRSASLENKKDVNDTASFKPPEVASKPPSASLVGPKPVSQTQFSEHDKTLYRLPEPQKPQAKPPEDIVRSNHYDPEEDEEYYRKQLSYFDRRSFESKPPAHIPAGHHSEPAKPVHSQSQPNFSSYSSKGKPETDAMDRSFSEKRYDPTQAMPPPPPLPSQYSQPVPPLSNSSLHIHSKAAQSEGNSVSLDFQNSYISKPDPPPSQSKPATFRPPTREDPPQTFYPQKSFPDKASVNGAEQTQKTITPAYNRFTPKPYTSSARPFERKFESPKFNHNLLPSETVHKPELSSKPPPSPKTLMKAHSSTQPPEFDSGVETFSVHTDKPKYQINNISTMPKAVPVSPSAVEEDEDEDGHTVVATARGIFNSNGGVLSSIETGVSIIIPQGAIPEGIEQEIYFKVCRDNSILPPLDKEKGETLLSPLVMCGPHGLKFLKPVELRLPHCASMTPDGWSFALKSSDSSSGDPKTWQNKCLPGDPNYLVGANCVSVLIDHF

[2] = target: zonula occludens 1 (rat alveolar epithelial cells) (rat); test: STORM co-localization, untransduced rat AECs
[3] = target: zonula occludens 1 (rat alveolar epithelial cells) (rat); test: STORM co-localization, rat AECs without YFP-claudin-5
[4] = target: T1, zonula occludens 1 (rat alveolar epithelial cells) (rat, UniProt A0A0G2K2P5 1-1765); test: STORM co-localization in rat AECs (FIG. 4C)
T1 construct: Endogenous cytoplasmic protein within primary rat AECs (not a surface protein); also called ZO-1
T1 sequence (A0A0G2K2P5 whole entry): as the sequence (A0A0G2 entry or part of it limits assumed) above

Row | Molecule | co-localization [1] [%] | co-localization index [2] [%] | co-localization [3] [%] | binding result [4]
1 | native claudin-18 (rat alveolar epithelial cells) (from UniProt Q5I0E5 1-261) | 16 | 30.5 | 31 | –
2 | B1 | – | – | – | binds
